Data from PMC2921345.

Experiments:
[1] = molecular target: mRFP-Toca-1 (Transducer of Cdc42-dependent actin assembly, wild type) (human); assay: FRET or BRET; frequency-domain FLIM of the GFP donor (LIFA system, 40 MHz) in cells co-expressing GFP and mRFP proteins; lifetime of GFP in cells approximately 2.2 ns
[2] = molecular target: mRFP-Toca-1 (Transducer of Cdc42-dependent actin assembly, wild type); assay: AP-FRET (acceptor photobleaching FRET) in transfected cells
[3] = molecular target: GFP-N-WASP (neuronal Wiskott Aldrich syndrome protein, wild type) (UniProt O08816); assay: as above; conditions: mRFP-Toca-1MGD383-385IST and GFP-N-WASP; 36 hr expression; n = 7-10, from 2-3 experiments

Chain of mRFP-Toca-1 (Transducer of Cdc42-dependent actin assembly, wild type) (human) (Q5T0N5 whole entry): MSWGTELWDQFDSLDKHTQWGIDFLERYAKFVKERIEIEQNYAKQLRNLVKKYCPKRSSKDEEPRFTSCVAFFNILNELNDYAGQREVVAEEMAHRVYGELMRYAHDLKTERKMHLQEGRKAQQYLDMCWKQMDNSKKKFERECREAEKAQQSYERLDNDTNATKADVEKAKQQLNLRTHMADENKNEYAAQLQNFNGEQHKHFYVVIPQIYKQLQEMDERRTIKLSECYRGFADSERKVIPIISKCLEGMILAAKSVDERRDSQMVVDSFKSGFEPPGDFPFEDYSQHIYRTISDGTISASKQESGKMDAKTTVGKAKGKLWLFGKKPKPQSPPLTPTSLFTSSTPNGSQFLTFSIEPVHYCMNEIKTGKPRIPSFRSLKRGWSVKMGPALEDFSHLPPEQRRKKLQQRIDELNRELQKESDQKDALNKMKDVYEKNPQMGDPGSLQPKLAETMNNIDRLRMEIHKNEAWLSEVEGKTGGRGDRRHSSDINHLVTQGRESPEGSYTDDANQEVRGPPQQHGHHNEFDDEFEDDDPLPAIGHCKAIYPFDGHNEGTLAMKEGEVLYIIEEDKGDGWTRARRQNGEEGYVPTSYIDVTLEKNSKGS

GFP-N-WASP (neuronal Wiskott Aldrich syndrome protein, wild type) (from UniProt O08816 1-501) (natural protein)
GFP donor lifetime (FLIM), in tubules [1]: 1.59 ns
GFP donor lifetime (FLIM), in vesicles [1]: 1.64 ns

Cdc42 (wild type) G12V
other: FRET efficiency ([2]; ROI on tubules, mRFP-Toca-1, HA-N-WASP and GFP-Cdc42G12V co-expressed, 36 hours expression): 9%
other: FRET efficiency ([2]; ROI on vesicles, mRFP-Toca-1, HA-N-WASP and GFP-Cdc42G12V co-expressed, 36 hours expression): 0.03%

GFP-N-WASP (neuronal Wiskott Aldrich syndrome protein, wild type) (from UniProt O08816) H208D
other: FRET efficiency ([2]; mRFP-Toca-1 and GFP-N-WASPH208D, 36 hr expression, n = 7-10, from 2-3 experiments): 3.87%

mRFP-Toca-1 (Transducer of Cdc42-dependent actin assembly, wild type) M383I; G384S; D385T
other: FRET efficiency [3]: 17.5%
